Assay results reported in the Human Domainome abundance scans (Beltran et al. 2025).
± gives the uncertainty stated by the source.

B1: Zinc finger homeobox protein 4, residues 2562 to 2617; numbered along this chain, Q86UP3 (parent)
chain: RLRTTITPEQLEILYEKYLLDSNPTRKMLDHIAREVGLKKRVVQVWFQNTRARERK

Variants of: B1
Assay: abundance fitness (aPCA) (normalised: wild type 0, dead -1); higher = more abundant; growth selection in yeast, the domain comes from the species named
Conditions: Homo sapiens

Row | Variant | abundance fitness
1 | T50M | -0.094 ± 0.083
2 | T50K | 0.028 ± 0.072
3 | T50W | -0.097 ± 0.086
4 | T50R | 0.08 ± 0.056
5 | T50H | -0.034 ± 0.12
6 | T50A | 0.041 ± 0.073
7 | T50C | -0.345 ± 0.14
8 | T50P | -0.738 ± 0.077
9 | T50I | -0.042 ± 0.1
10 | T50V | -0.068 ± 0.071
11 | V36R | -1.03 ± 0.14
12 | V36W | -0.638 ± 0.11
13 | V36K | -0.726 ± 0.19
14 | V36A | -0.103 ± 0.076
15 | V36G | -0.812 ± 0.1
16 | V36E | -0.671 ± 0.11
17 | V36C | -0.223 ± 0.077
18 | V36M | -0.134 ± 0.089
19 | V36S | 0.019 ± 0.068
20 | V36Y | -0.586 ± 0.29
21 | V36P | -0.649 ± 0.13
22 | V36H | -0.418 ± 0.23
23 | V36D | -0.27 ± 0.13
24 | V36N | -0.415 ± 0.086

Row | Variant | abundance fitness
25 | V36F | -0.623 ± 0.26
26 | V36L | -0.121 ± 0.085
27 | V36I | -0.398 ± 0.11
28 | Q44H | -0.101 ± 0.094
29 | Q44W | -0.045 ± 0.094
30 | Q44S | -0.248 ± 0.075
31 | Q44A | -0.011 ± 0.092
32 | Q44R | -0.191 ± 0.061
33 | Q44M | -0.132 ± 0.09
34 | Q44G | -0.031 ± 0.069
35 | Q44I | -0.28 ± 0.092
36 | Q44V | -0.156 ± 0.062
37 | Q44K | -0.035 ± 0.094
38 | Q44C | 0.246 ± 0.11
39 | Q44D | 0.322 ± 0.09
40 | Q44L | -0.128 ± 0.06
41 | Q44Y | 0.202 ± 0.13
42 | Q44E | 0.298 ± 0.056
43 | Q44T | -0.053 ± 0.097
44 | Q44N | -0.131 ± 0.14
45 | Q44F | -0.416 ± 0.21
46 | V42E | 0.273 ± 0.093
47 | V42A | -0.197 ± 0.097
48 | V42C | -0.179 ± 0.093

Row | Variant | abundance fitness
49 | V42R | -0.413 ± 0.068
50 | V42L | -0.126 ± 0.083
51 | V42G | -0.533 ± 0.067
52 | V42D | 0.23 ± 0.066
53 | V42H | -0.079 ± 0.13
54 | V42S | -0.348 ± 0.059
55 | V42T | -0.187 ± 0.12
56 | V42K | -0.302 ± 0.07
57 | V42Y | -0.598 ± 0.22
58 | V42Q | -0.038 ± 0.15
59 | V42M | -0.103 ± 0.077
60 | K40G | 0.103 ± 0.073
61 | K40Y | 0.518 ± 0.12
62 | K40T | 0.199 ± 0.074
63 | K40D | -0.097 ± 0.19
64 | K40L | 0.264 ± 0.065
65 | K40C | 0.108 ± 0.12
66 | K40S | 0.218 ± 0.049
67 | K40W | -0.002 ± 0.087
68 | K40E | 0.361 ± 0.085
69 | K40M | 0.243 ± 0.099
70 | K40H | -0.218 ± 0.23
71 | K40A | 0.163 ± 0.087
72 | K40F | 0.15 ± 0.13

Row | Variant | abundance fitness
73 | K40I | 0.143 ± 0.12
74 | K40V | 0.264 ± 0.052
75 | K40R | 0.057 ± 0.086
76 | K40P | 0.162 ± 0.1
77 | R53D | 0.226 ± 0.14
78 | R53Q | 0.145 ± 0.1
79 | R53G | 0.054 ± 0.072
80 | R53Y | -0.62 ± 0.28
81 | R53W | -0.315 ± 0.077
82 | R53T | 0.021 ± 0.1
83 | R53M | 0.077 ± 0.079
84 | R53V | -0.03 ± 0.077
85 | R53E | 0.394 ± 0.065
86 | R53C | 0.045 ± 0.097
87 | R53N | 0.052 ± 0.13
88 | R53A | -0.014 ± 0.07
89 | R53S | 0.168 ± 0.072
90 | R53P | -0.373 ± 0.12
91 | R53I | -0.156 ± 0.16
92 | R53L | 0.039 ± 0.064
93 | R53H | 0.104 ± 0.081
94 | R53F | 0.066 ± 0.1
95 | R53K | 0.14 ± 0.1
96 | R51K | 0.039 ± 0.081

Row | Variant | abundance fitness
97 | R51I | 0.134 ± 0.064
98 | R51Y | -0.192 ± 0.1
99 | R51N | 0.156 ± 0.15
100 | R51E | -0.15 ± 0.12
101 | R51L | 0.234 ± 0.086
102 | R51W | 0.057 ± 0.078
103 | R51G | -0.151 ± 0.068
104 | R51P | -1.05 ± 0.26
105 | R51T | -0.242 ± 0.084
106 | R51C | -0.267 ± 0.093
107 | R51V | 0.017 ± 0.076
108 | R51A | 0.17 ± 0.053
109 | R51F | -0.08 ± 0.07
110 | R51M | -0.021 ± 0.067
111 | R51S | 0.086 ± 0.067
112 | R51H | 0.32 ± 0.092
113 | V45N | -0.384 ± 0.27
114 | V45Y | -0.036 ± 0.2
115 | V45S | -0.309 ± 0.1
116 | V45T | -0.045 ± 0.075
117 | V45W | -0.439 ± 0.11
118 | V45P | -0.754 ± 0.2
119 | V45H | -0.262 ± 0.27
120 | V45A | -0.243 ± 0.092

Row | Variant | abundance fitness
121 | V45R | -0.402 ± 0.069
122 | V45C | -0.352 ± 0.13
123 | V45D | 0.192 ± 0.067
124 | V45Q | -0.568 ± 0.21
125 | V45L | -0.111 ± 0.056
126 | V45I | -0.057 ± 0.14
127 | V45K | -0.249 ± 0.11
128 | V45G | -0.198 ± 0.083
129 | V45F | -0.738 ± 0.2
130 | V45E | 0.535 ± 0.098
131 | Q48Y | -0.168 ± 0.13
132 | Q48F | -0.389 ± 0.12
133 | Q48K | -0.006 ± 0.098
134 | Q48R | -0.166 ± 0.07
135 | Q48L | -0.611 ± 0.12
136 | Q48W | -0.556 ± 0.12
137 | Q48A | 0.2 ± 0.093
138 | Q48P | -1.02 ± 0.29
139 | Q48D | 0.392 ± 0.11
140 | Q48E | 0.433 ± 0.07
141 | Q48I | -0.693 ± 0.34
142 | Q48C | -0.287 ± 0.091
143 | Q48T | 0.008 ± 0.065
144 | Q48N | -0.216 ± 0.17

Row | Variant | abundance fitness
145 | Q48G | 0.178 ± 0.079
146 | Q48H | -0.139 ± 0.14
147 | Q48S | -0.049 ± 0.074
148 | Q48M | -0.16 ± 0.084
149 | Q48V | -0.152 ± 0.071
150 | E54M | -0.09 ± 0.14
151 | E54D | -0.122 ± 0.067
152 | E54L | -0.201 ± 0.056
153 | E54H | -0.672 ± 0.32
154 | E54Q | -0.664 ± 0.25
155 | E54G | -0.362 ± 0.064
156 | E54S | -0.254 ± 0.088
157 | E54A | -0.433 ± 0.059
158 | E54T | -0.737 ± 0.17
159 | E54R | -0.615 ± 0.11
160 | E54K | -0.722 ± 0.36
161 | E54W | -0.307 ± 0.11
162 | E54V | -0.523 ± 0.063
163 | E54P | -0.545 ± 0.087
164 | E54F | 0.025 ± 0.17
165 | E54Y | -0.715 ± 0.29
166 | E54I | -0.283 ± 0.34
167 | E54C | -0.811 ± 0.19
